From article PMC5702341, “Identification of Antibody and Small Molecule Antagonists of Ferroportin-Hepcidin Interaction” (Frontiers in Pharmacology, 2017)
Where a SMILES comes first, the peptide text is derived from it. Bridges are numbered along the chain shown (N, C = ends). Side-chain parts run from the residue outwards. The star is where a group is joined. X1 = Nc1ccc2c(c1)Oc1cc(N)ccc1C21OC(=O)c2cc(C(=O)*)ccc21; Ahx = NCCCCCC(=O)O

Tests used:
[1] = biological target: T1, ferroportin-hepcidin interaction (T-REx/FPN-V5 cells) (Homo sapiens, UniProt Q9NP59); test: RhoG-hepcidin uptake assay; format: cell-based; details: compound 1 h prior to 250 nM RhoG-hepcidin for 1 h; read-out: IC50 inhibition of RhoG-hepcidin uptake
T1 sequence (Q9NP59 1-571): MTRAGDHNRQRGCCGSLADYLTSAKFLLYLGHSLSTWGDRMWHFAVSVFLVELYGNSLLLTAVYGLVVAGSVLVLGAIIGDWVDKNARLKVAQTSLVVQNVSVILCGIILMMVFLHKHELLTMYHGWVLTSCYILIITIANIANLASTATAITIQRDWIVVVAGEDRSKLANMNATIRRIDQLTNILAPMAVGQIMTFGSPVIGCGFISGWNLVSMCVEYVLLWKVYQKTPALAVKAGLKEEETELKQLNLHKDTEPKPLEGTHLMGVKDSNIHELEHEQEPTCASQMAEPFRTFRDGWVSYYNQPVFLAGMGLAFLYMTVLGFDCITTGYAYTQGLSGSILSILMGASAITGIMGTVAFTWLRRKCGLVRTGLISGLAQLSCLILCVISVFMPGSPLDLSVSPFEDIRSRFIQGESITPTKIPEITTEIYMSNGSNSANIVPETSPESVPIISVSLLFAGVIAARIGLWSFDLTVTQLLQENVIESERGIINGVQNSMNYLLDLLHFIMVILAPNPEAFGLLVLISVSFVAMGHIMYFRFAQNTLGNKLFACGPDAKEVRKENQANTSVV
T1 sequence (P81172 60-84 partner): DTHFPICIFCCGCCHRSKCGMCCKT
Text: (§1) In an effort to identify small molecule inhibitors of hepcidin-induced FPN internalization, we ran a small molecule screen using the cell-based iron response reporter assay described above. […] Molecules that prevented intracellular iron accumulation were further tested in the RhoG-hepcidin uptake and FPN internalization assays.

[2] = biological target: T1, ferroportin-hepcidin interaction (T-REx/FPN-V5 cells); test: RhoG-hepcidin reversibility (washout) assay; format: cell-based; details: for IC50: cells treated 1 h, washed to remove unbound compound, then RhoG-hepcidin, N = 3, read-out: IC50 blocking RhoG-hepcidin binding/uptake after washout
Method: T-REx™/FPN-V5 cells plated in 96-well Packard ViewPlates at 50,000 cells/well and induced overnight as described for the BLA screening assay. […] As a control, cells were treated identically except that compound was not removed before addition of RhoG-hepcidin. Cells were fixed with 4% formaldehyde (Thermo Fisher) and stained with Hoechst nuclear dye. RhoG-Hepc uptake per cell was measured by cellular imaging.
as §1
(A) T-REx™/FPN-V5 cells were induced overnight and treated with small molecules for 1 h prior to addition of RhoG-hepc for 2 h. Cells were fixed/permeabilized and stained with Ab 38G6; blue = nuclei, green = RhoG-hepcidin, red = FPN. Scale bar = 20 μm.
Reactivity with cell-based, folded FPN was assessed by the hepcidin uptake assay (Figure 9C); reactivity with the linear peptide was assessed by mass spectrometry (Figure 10A).

[3] = biological target: ferroportin (T-REx/FPN-V5 cells) (Homo sapiens, UniProt Q9NP59); test: cell-based
Method: Cells were plated in 96-well Poly-D-Lysine coated plates (BD) at 50,000 cells/well and induced overnight with 10 ng/ml doxycycline (Clontech). […] FPN staining was completed as described above except that the incubations were performed at room temperature. […] Nuclei were stained with Hoechst dye. Cell surface or total FPN or intracellular hepcidin was quantitated with cellular imaging. Uninduced (non-FPN-expressing) cells served as a negative control. Images were captured from Arrayscan™ VTI (Thermo Fisher) equipped with Zeiss microscope optics and Hamamatsu ORCA®-ER CCD camera. Images were captured with 10X or 20X objectives and analyzed with the Spot Detector bioapplication. A minimum of 300 cells per well were analyzed for each condition.
T-REx™/FPN-V5 were plated in 384-well Poly-D-Lysine coated plates (BD) at 15,000 cell/well and induced overnight as described for RhoG-hepcidin uptake assay. […] Plates were scanned on Thermo Fisher ArrayScan™ HCS Reader and analyzed with Spot Detector application. A minimum of 300 cells/well were analyzed.
Alanine mutant peptides were tested for activity in both BLA and ferroportin internalization assays.
Using these antibodies, it was possible to develop a quantitative cellular imaging assay that measured hepcidin-induced FPN internalization. […]

FPN (T-REx/FPN-V5 cells) = test: RhoG-hepcidin binding and displacement at 0°C on FPN-expressing cells; format: cell-based, human; details: 2 h on ice, then 10X unlabeled hepcidin for 2 h on ice
Method: To verify this work, RhoG-hepcidin was incubated with either uninduced or induced cells at 0°C. Contrary to the previous report, RhoG-hepcidin bound to FPN at this low temperature. To assess the reversibility of hepcidin binding to FPN, we incubated FPN-expressing cells with RhoG-hepcidin at 0°C to prevent internalization; we then added excess unlabeled hepcidin to determine if the labeled hepcidin could be displaced. […] We confirmed that FPN was not internalized using antibody 45D8 (Figure 11A).
(A) T-REx™/FPN-V5 cells were allowed to equilibrate on ice for 15 min prior to addition of RhoG-hepcidin for 2 h on ice; 10X unlabeled hepcidin was added for 2 additional hours on ice. FPN was detected with Ab 45D8; scale bar = 20 μm. (B) Non-glycosylated FPN binds hepcidin and internalizes. T-REx™/FPN-V5 cells were treated ± 0.3 μg/ml tunicamycin (Tm) for 18 h, followed by treatment with 500 nM hepcidin (Hepc) for 5 h. Blot was probed with anti-V5 Ab for FPN detection and anti-cyclophilin as loading control. (C) Induced HEK-FPN-V5 cells were treated ± 0.25 μg/ml tunicamycin (Tm) for 18 h, followed by RhoG-hepcidin for 3 h; uptake was quantitated by cellular imaging (N = 4, mean ± sd).

[4] = biological target: human ferroportin with V5 tag, on doxycycline-induced T-REx/FPN-V5 cells (human) (UniProt Q9NP59)
[5] = biological target: human ferroportin with V5 tag, on doxycycline-induced T-REx/FPN-V5 cells (human) (UniProt Q9NP59); remark: listed apart in the source
[6] = biological target: human ferroportin with V5 tag, on doxycycline-induced T-REx/FPN-V5 cells (human) (UniProt Q9NP59); remark: listed apart in the source
[7] = biological target: endogenous human ferroportin on T47D cells (human (endogenous in T47D)) (UniProt Q9NP59)

Compound `O=S(=O)(c1ccc(Cl)cc1)c1cnc2ccccc2n1` [Compound 1, 2-[(4-chlorophenyl)sulfonyl]quinoxaline] has an IC50 [1] of 141 nM, an inhibition at 100 µM ([2]; 100 μM compound, 1 h, in cells, read-out: inhibition of hepcidin uptake) of 100% and an IC50 [2] of 100 nM.

For `CC[C@H](C)[C@@H]1NC(=O)[C@@H](NC(=O)[C@@H](NC(=O)[C@@H]2CCCN2C(=O)[C@H](Cc2ccccc2)NC(=O)[C@H](Cc2c[nH]cn2)NC(=O)[C@@H](NC(=O)[C@@H](N)CC(=O)O)[C@@H](C)O)[C@@H](C)CC)CSSC[C@@H](C(=O)N[C@@H](CCCCN)C(=O)N[C@H](C(=O)O)[C@@H](C)O)NC(=O)[C@@H]2CSSC[C@@H]3NC(=O)[C@@H]4CSSC[C@H](NC(=O)[C@H](Cc5ccccc5)NC1=O)C(=O)N[C@@H](CSSC[C@H](NC(=O)[C@H](CCCCN)NC(=O)[C@H](CCCCNC(=O)CCCCCNC(=O)c1ccc5c(c1)C(=O)OC51c5ccc(N)cc5Oc5cc(N)ccc51)NC(=O)[C@H](CCCNC(=N)N)NC(=O)[C@H](Cc1c[nH]cn1)NC3=O)C(=O)NCC(=O)N[C@@H](CCSC)C(=O)N2)C(=O)NCC(=O)N4` [RhoG-hepcidin, [Lys17(N^ε-Rhodamine green amino hexanoyl)]hepcidin] (H-DTHFPICIFCCGCCHRK([Ahx-X1])KCGMCCKT-OH; disulfide 7-23, 10-13, 11-19, 14-22 (inferred); C-terminus assumed), the EC50 [3] was ~30 nM and the “reversibility of binding to FPN” value (FPN (T-REx/FPN-V5 cells)) was “reversible”.

`NC(=O)CI` [iodoacetamide, reference compound] was tested, and the “inhibition of hepcidin uptake” value ([2]; 100 μM compound, 1 h, in cells) was ~ 50% and the IC50 [2] was 86000 nM.

With “[Lys17(N-epsilon-Rhodamine green amino hexanoyl)]hepcidin (peptide)” the EC50 of FPN internalization, T-REx/FPN-V5 cells, 3 h, cellular imaging with Ab 38C8 [4] was 30 nM.

hepcidin D1A (peptide) showed an FPN internalization assay EC50 (surface FPN by cellular imaging, T-REx/FPN-V5 cells) [5] of 185 nM and an Iron response assay EC50 (β-lactamase reporter under the ferritin IRE, T-REx/FPN-V5/IRE-BLA cells) [5] of 144 nM.

For hepcidin F4A (peptide), the FPN internalization assay EC50 (surface FPN by cellular imaging, T-REx/FPN-V5 cells) [5] was > 3600 nM and the Iron response assay EC50 (β-lactamase reporter under the ferritin IRE, T-REx/FPN-V5/IRE-BLA cells) [5] was > 3600 nM.

hepcidin F9A (peptide) was tested, and the FPN internalization assay EC50 (surface FPN by cellular imaging, T-REx/FPN-V5 cells) [5] was 250 nM and the Iron response assay EC50 (β-lactamase reporter under the ferritin IRE, T-REx/FPN-V5/IRE-BLA cells) [5] was 392 nM.

With hepcidin G12A (peptide) the FPN internalization assay EC50 (surface FPN by cellular imaging, T-REx/FPN-V5 cells) [5] was 212 nM and the Iron response assay EC50 (β-lactamase reporter under the ferritin IRE, T-REx/FPN-V5/IRE-BLA cells) [5] was 107 nM.

hepcidin G20A (peptide) gave an FPN internalization assay EC50 (surface FPN by cellular imaging, T-REx/FPN-V5 cells) [5] of 309 nM and an Iron response assay EC50 (β-lactamase reporter under the ferritin IRE, T-REx/FPN-V5/IRE-BLA cells) [5] of 288 nM.

hepcidin H3A (peptide) gave an FPN internalization assay EC50 (surface FPN by cellular imaging, T-REx/FPN-V5 cells) [5] of 308 nM and an Iron response assay EC50 (β-lactamase reporter under the ferritin IRE, T-REx/FPN-V5/IRE-BLA cells) [5] of 298 nM.

hepcidin H15A (peptide) gave an FPN internalization assay EC50 (surface FPN by cellular imaging, T-REx/FPN-V5 cells) [5] of 10 nM and an Iron response assay EC50 (β-lactamase reporter under the ferritin IRE, T-REx/FPN-V5/IRE-BLA cells) [5] of 12 nM.

For hepcidin I6A (peptide), the FPN internalization assay EC50 (surface FPN by cellular imaging, T-REx/FPN-V5 cells) [5] was 247 nM and the Iron response assay EC50 (β-lactamase reporter under the ferritin IRE, T-REx/FPN-V5/IRE-BLA cells) [5] was 634 nM.

In the case of hepcidin I8A (peptide), the FPN internalization assay EC50 (surface FPN by cellular imaging, T-REx/FPN-V5 cells) [5] is reported as > 3600 nM and the Iron response assay EC50 (β-lactamase reporter under the ferritin IRE, T-REx/FPN-V5/IRE-BLA cells) [5] is reported as > 3600 nM.

In the case of hepcidin K18A (peptide), the FPN internalization assay EC50 (surface FPN by cellular imaging, T-REx/FPN-V5 cells) [5] is reported as 12 nM and the Iron response assay EC50 (β-lactamase reporter under the ferritin IRE, T-REx/FPN-V5/IRE-BLA cells) [5] is reported as 13 nM.

In the case of hepcidin K24A (peptide), the FPN internalization assay EC50 (surface FPN by cellular imaging, T-REx/FPN-V5 cells) [5] is reported as 267 nM and the Iron response assay EC50 (β-lactamase reporter under the ferritin IRE, T-REx/FPN-V5/IRE-BLA cells) [5] is reported as 266 nM.

hepcidin M21A (peptide) showed an FPN internalization assay EC50 (surface FPN by cellular imaging, T-REx/FPN-V5 cells) [5] of 162 nM and an Iron response assay EC50 (β-lactamase reporter under the ferritin IRE, T-REx/FPN-V5/IRE-BLA cells) [5] of 112 nM.

hepcidin P5A (peptide) gave an FPN internalization assay EC50 (surface FPN by cellular imaging, T-REx/FPN-V5 cells) [5] of 474 nM and an Iron response assay EC50 (β-lactamase reporter under the ferritin IRE, T-REx/FPN-V5/IRE-BLA cells) [5] of 180 nM.

With hepcidin R16A (peptide) the FPN internalization assay EC50 (surface FPN by cellular imaging, T-REx/FPN-V5 cells) [5] was 56 nM and the Iron response assay EC50 (β-lactamase reporter under the ferritin IRE, T-REx/FPN-V5/IRE-BLA cells) [5] was 57 nM.

Compound hepcidin S17A (peptide) has an FPN internalization assay EC50 (surface FPN by cellular imaging, T-REx/FPN-V5 cells) [5] of 50 nM and an Iron response assay EC50 (β-lactamase reporter under the ferritin IRE, T-REx/FPN-V5/IRE-BLA cells) [5] of 66 nM.

For hepcidin T2A (peptide), the FPN internalization assay EC50 (surface FPN by cellular imaging, T-REx/FPN-V5 cells) [5] was 29 nM and the Iron response assay EC50 (β-lactamase reporter under the ferritin IRE, T-REx/FPN-V5/IRE-BLA cells) [5] was 29 nM.

In the case of hepcidin T25A (peptide), the FPN internalization assay EC50 (surface FPN by cellular imaging, T-REx/FPN-V5 cells) [5] is reported as 39 nM and the Iron response assay EC50 (β-lactamase reporter under the ferritin IRE, T-REx/FPN-V5/IRE-BLA cells) [5] is reported as 53 nM.

Work on “synthetic human hepcidin (wild type, unlabeled) (peptide)” yielded an EC50 of hepcidin-induced FPN internalization, T-REx/FPN-V5 cells, 6 h, surface FPN on live cells by cellular imaging with Ab 38C8 [6] of 11 nM, an EC50 of hepcidin-induced FPN internalization, T47D cells, 6 h, surface FPN on live cells by cellular imaging with Ab 38C8 [7] of 13 nM and an FPN internalization assay EC50 (surface FPN by cellular imaging, T-REx/FPN-V5 cells) [5] of 51 nM. For the same compound, the Iron response assay EC50 (β-lactamase reporter under the ferritin IRE, T-REx/FPN-V5/IRE-BLA cells) [5] was 63 nM.
